Reference: article doi:10.1101/2021.09.06.458672

Biological target: plectasin variant D9S Q14K V36L (PPI42)
Test: dynamic light scattering

- mass fraction of medium sized oligomers and protein fibrils: < 2.5 % mass
Substance: plectasin variant D9S Q14K V36L (PPI42) (peptide)
